Earlier results, collected in article PMC7590900.

Biological target: CXCR7 (Homo sapiens) (UniProt P25106)
Chain of UniProt P25106 (P25106 whole entry): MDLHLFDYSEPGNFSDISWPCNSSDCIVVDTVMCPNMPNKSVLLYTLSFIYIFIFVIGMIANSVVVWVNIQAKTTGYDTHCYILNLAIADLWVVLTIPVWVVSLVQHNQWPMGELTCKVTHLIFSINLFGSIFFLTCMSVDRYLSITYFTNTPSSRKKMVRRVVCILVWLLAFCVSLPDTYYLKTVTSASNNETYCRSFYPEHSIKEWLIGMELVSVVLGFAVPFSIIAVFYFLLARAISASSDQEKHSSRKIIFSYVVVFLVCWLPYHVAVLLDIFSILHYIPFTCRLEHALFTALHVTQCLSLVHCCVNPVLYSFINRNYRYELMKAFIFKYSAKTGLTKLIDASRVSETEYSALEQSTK

Kd: 3.5 nM
Substance: CXCL11 (from UniProt O14625)
